The results in this text go back to PMC4398755, “Cloning and expressing a highly functional and substrate specific farnesoic acid o-methyltransferase from the Asian citrus psyllid (Diaphorina citri Kuwayama)” (FEBS Open Bio, 2015).

For orientation: Km means the substrate concentration at which the rate is half of its maximum. By Vmax is commonly meant the rate approached at saturating substrate. For orientation: kcat means the number of substrate molecules converted per active site and unit of time at saturation. As usually defined, the kcat/Km is the turnover number divided by the Michaelis constant.

Assay in all cases: radiometric [3H]SAM methyl transfer, RP-HPLC / rapid biphasic separation
The target in one series is T1, DcFA-o-MT (Diaphorina citri, UniProt A0A075W3Z0).
T1 sequence (A0A075W3Z0 1-272): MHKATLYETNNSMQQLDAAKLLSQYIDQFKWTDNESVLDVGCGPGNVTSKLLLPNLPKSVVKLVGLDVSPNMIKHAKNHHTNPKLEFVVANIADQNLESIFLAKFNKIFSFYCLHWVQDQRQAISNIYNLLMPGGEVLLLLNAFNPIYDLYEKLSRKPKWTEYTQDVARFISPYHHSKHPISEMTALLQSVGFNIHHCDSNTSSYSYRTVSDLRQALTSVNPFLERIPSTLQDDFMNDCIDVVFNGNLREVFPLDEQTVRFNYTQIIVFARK
Format: biochemical. The note with it: 10 μM SAM (saturating), 50 mM Tris-HCl pH 7.9, 25 °C, 30 min; no metal added; 357 pmol enzyme in 100 μL, well above Km; substrate 1-20 μM. The source says: (§1) radiometric [3H]SAM methyl transfer, RP-HPLC / rapid biphasic separation on DcFA-o-MT

Substrate in series [1]: CC(C)=CCC/C(C)=C/CC/C(C)=C/C(=O)O
Format: biochemical, Diaphorina citri. The note with it: 10 μM SAM (saturating), 50 mM Tris-HCl pH 7.9, 25 °C, 30 min, no metal added, 357 pmol enzyme in 100 μL, well above Km, substrate 1-20 μM.
Description: as §1

Substrate in series [2]: C/C(=C\C(=O)O)CC/C=C(\C)CC[C@H]1OC1(C)C
It counts as biochemical, Diaphorina citri. The note with it: 10 μM SAM (saturating), 50 mM Tris-HCl pH 7.9, 25 °C, 30 min, no metal added, 357 pmol enzyme in 100 μL, well above Km, substrate 1-20 μM.
Description: as §1

Substrate in series [3]: CC/C(=C/CC/C(C)=C/C(=O)O)CCC1OC1(C)CC
It counts as biochemical, Diaphorina citri. The note with it: 10 μM SAM (saturating), 50 mM Tris-HCl pH 7.9, 25 °C, 30 min, no metal added, 357 pmol enzyme in 100 μL, well above Km, substrate 1-20 μM, error exceeds value, text b19 says Km is 100-fold that of FA,.
Description: as §1

Substrate in series [4]: CC/C(=C\CC/C(C)=C\C(=O)O)CCC1OC1(C)CC
Format: biochemical, Diaphorina citri. The note with it: 10 μM SAM (saturating), 50 mM Tris-HCl pH 7.9, 25 °C, 30 min, no metal added, 357 pmol enzyme in 100 μL, well above Km, substrate 1-20 μM, printed kcat/Km 143.4 does not match the printed Km and kcat.
Description: as §1

Turning to homoFA, the Km at DcFA-o-MT amounted to 0.02 ± 0.01 µM.

B1: DcFA-o-MT (Diaphorina citri) (protein)
chain: MHKATLYETNNSMQQLDAAKLLSQYIDQFKWTDNESVLDVGCGPGNVTSKLLLPNLPKSVVKLVGLDVSPNMIKHAKNHHTNPKLEFVVANIADQNLESIFLAKFNKIFSFYCLHWVQDQRQAISNIYNLLMPGGEVLLLLNAFNPIYDLYEKLSRKPKWTEYTQDVARFISPYHHSKHPISEMTALLQSVGFNIHHCDSNTSSYSYRTVSDLRQALTSVNPFLERIPSTLQDDFMNDCIDVVFNGNLREVFPLDEQTVRFNYTQIIVFARK
On to B1, for which the Km in series [1] came to 0.46 ± 0.05 µM; in series [2], 2.53 ± 0.72 µM; in series [3] it was 4.58 ± 4.82 µM; in series [4] it was 5.65 ± 0.83 µM. Besides, the maximal velocity (Vmax) in series [1] came to 1.61e-05 µmol/min; in series [2] it was 2.8e-07 µmol/min; in series [3], 5e-08 µmol/min; in series [4] it was 1.75e-06 µmol/min. Besides, the kcat in series [1] was found to be 0.00075 ± 3e-05 s⁻¹; in series [2], 1.3e-05 ± 2e-06 s⁻¹. Besides, the figures for the kcat/Km in series [1], in series [2] and in series [3] were 1640 M⁻¹ s⁻¹, 5.14 M⁻¹ s⁻¹ and 0.66 M⁻¹ s⁻¹, respectively.
